Results: publication PMC2217618 (Apoptosis, 2007)
[ ]: non-standard residue; d: D form.

Target: αvβ3 integrin (human (endogenous in HUVEC), UniProt P06756;P05106)
Assay: radioligand binding

Sequence of αvβ3 integrin (P06756 31-1048, chain 1 of 2): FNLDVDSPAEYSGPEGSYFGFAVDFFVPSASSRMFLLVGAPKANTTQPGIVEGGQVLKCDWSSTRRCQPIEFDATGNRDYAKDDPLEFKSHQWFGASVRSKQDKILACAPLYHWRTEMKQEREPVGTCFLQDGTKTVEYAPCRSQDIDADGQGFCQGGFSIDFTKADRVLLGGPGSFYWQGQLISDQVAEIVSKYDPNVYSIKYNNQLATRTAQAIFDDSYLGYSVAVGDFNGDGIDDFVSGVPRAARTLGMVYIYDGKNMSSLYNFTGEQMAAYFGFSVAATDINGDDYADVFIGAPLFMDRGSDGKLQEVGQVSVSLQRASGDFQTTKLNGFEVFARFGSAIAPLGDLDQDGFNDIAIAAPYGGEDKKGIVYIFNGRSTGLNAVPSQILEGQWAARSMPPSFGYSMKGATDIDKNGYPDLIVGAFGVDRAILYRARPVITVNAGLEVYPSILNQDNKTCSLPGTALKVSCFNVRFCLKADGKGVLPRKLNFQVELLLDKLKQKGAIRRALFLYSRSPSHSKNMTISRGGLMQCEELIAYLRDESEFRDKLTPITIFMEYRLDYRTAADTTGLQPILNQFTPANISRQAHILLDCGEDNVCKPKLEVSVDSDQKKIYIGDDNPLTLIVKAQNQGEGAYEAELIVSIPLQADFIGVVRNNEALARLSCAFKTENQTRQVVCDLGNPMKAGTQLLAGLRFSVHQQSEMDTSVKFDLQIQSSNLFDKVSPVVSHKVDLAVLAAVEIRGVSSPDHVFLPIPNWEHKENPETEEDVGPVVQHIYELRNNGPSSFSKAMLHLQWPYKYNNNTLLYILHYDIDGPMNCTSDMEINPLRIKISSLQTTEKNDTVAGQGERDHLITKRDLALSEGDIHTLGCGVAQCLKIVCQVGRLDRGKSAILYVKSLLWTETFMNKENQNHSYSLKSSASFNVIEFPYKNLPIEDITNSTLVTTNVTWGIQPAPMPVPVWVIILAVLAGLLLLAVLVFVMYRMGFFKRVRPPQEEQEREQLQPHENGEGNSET
Sequence of αvβ3 integrin (P05106 27-788, chain 2 of 2): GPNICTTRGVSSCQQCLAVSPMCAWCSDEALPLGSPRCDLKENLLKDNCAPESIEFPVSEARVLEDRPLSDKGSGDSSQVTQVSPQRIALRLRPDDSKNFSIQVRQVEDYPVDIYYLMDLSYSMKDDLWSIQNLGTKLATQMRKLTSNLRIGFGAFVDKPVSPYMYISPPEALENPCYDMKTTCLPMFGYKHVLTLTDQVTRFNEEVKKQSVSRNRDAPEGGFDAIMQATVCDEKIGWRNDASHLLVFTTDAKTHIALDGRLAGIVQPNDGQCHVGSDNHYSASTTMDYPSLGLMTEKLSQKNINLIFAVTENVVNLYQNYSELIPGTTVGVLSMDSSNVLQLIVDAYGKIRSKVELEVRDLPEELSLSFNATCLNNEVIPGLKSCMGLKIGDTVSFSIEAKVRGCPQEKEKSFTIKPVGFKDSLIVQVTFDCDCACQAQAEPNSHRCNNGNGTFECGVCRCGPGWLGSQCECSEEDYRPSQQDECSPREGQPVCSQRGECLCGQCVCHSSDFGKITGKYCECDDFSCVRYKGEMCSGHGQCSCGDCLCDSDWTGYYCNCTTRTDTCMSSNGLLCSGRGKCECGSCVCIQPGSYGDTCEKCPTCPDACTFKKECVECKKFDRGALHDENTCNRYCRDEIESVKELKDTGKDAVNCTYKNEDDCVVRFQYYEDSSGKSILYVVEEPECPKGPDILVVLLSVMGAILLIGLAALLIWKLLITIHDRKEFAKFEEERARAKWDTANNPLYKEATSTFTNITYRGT

B1: RGD peptide c(RGDf(ε-S-acetylthioacetyl)K) (peptide)
peptide: cyclo(RGD[dF]K(S‑acetylthioacetyl))
B1 gave an IC50 of 383 nM.
